“Also recorded” adds a separate entry of the source.
T1: human M2 muscarinic receptor (Homo sapiens, UniProt P08172, DEL233-374/N2D/N3D/N6D/N9D)
T1 construct: FLAG (N); 8xHis (C); made in house; host or cells: Sf9 insect cells, BestBac baculovirus system
T1 sequence (P08172 with tags, fused parts or gaps N2D/N3D/N6D/N9D/DEL233-374): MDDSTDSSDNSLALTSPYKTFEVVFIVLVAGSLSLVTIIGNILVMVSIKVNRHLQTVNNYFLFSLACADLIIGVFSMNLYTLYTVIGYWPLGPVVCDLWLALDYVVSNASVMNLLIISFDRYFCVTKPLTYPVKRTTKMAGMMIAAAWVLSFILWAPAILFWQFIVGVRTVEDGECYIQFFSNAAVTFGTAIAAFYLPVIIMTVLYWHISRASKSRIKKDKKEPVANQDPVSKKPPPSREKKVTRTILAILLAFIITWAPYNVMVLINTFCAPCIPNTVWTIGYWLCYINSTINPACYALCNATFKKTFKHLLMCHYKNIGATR

B1: clone B4: Nanobody SEQ ID NO:16; functional extracellular M2 nanobody ligand (protein, listed as Lama glama)
VHH: QVQLQESGGGLVQAGGSLRLSCAASGRTFSNYAMSWFRQAPGKERGLVATIYRSGEGTYYLPSAKGRFTVSRDNAKNTAYLQMNSLKAEDTAVYYCAVMSRGTWSMWGQGTQVTVSS
B2: Nb9-1: Nanobody SEQ ID NO:2; M2 Gi mimetic (protein, listed as Lama glama)
VHH: QVQLQESGGGLVQAGGSLRLSCAASGHTFSSARMYWVRQAPGKEREFVAAISRSGFTYSADSVKGRFTISRDIANNTVYLQMNSLQPEDTAIYTCYAAYLDEFYNDYTHYWGLGTQVTVSS
B3: Nb9-8: Nanobody SEQ ID NO:1; M2 Gi mimetic, active-state stabilizing, binds intracellular surface of M2 receptor (protein, listed as Lama glama)
VHH: QVQLQESGGGLVQAGDSLRLSCAASGFDFDNFDDYAIGWFRQAPGQEREGVSCIDPSDGSTIYADSAKGRFTISSDNAENTVYLQMNSLKPEDTAVYVCSAWTLFHSDEYWGQGTQVTVSS
B4: Nb9-20: Nanobody SEQ ID NO:11; M2 Gi mimetic (protein, listed as Lama glama)
VHH: QVQLQESGGGLVQPEGSLTLACDTSGFTMNYYAIAWFRQAPEKEREGLATISSIDGRTYYADSVKGRFTISRDSAKNMVYLQMNNLRPEDTAVYYCSAGPDYSDYGDESEYWGQGTQVTVSS

Target: T1, human M2 muscarinic receptor
Experiment: M2 receptor radioligand binding assay (3H N-methyl scopolamine, receptor reconstituted into HDL particles)
Details: for enhancement of M2 receptor affinity for the agonist iperoxo: competition binding assay, iperoxo vs 3H N-methyl scopolamine, compared with G protein Gi
From the text: M2 muscarinic receptor expression and purification. The human M2 muscarinic receptor gene was modified to remove glycosylation sites, and to add an amino-terminal FLAG tag and a carboxy-terminal 8×His tag. In addition, residues 233-374 of intracellular loop 3 were deleted. […] Human M2 muscarinic receptor bearing an amino-terminal FLAG epitope tag and carboxy-terminal 8×His tag was expressed in Sf9 cells using the BestBac baculovirus system (Expression Systems; Davis, Calif.). Cells were infected at a density of 4×10^6 cells/mL, then incubated for two days at 27° C. Receptor was extracted and purified in the manner described previously for the M3 muscarinic receptor (Kruse et al., 2012). Briefly, receptor was first purified by Ni-NTA chromatography, FLAG affinity chromatography, then size exclusion chromatography. 1 μM atropine was included in all buffers. Receptor was then labeled with a 5-fold molar excess of biotin-NHS ester (Sigma-Aldrich; St. Louis, Mo.) in buffer containing 25 mM HEPES pH 7.2. Following a 30 minute incubation at room temperature and a 30 minute incubation on ice, unreacted label was quenched with 50 mM Tris pH 8. Directly labeled samples with fluorophore-NHS esters were prepared similarly. Receptor was then desalted into buffer containing either 10 μM tiotropium, 10 μM iperoxo, or buffer containing no ligand. Receptor eluted in buffer containing no ligand was treated with 50 μM iperoxo mustard (derivative of iperoxo that allows covalent binding to M2 receptor) for 20 minutes at room temperature. Samples were then concentrated, aliquoted, and flash frozen with 20% (v/v) glycerol.
M2 receptor radioligand binding assays. M2 receptor was expressed and purified, as described above. Receptor was then reconstituted into HDL particles consisting of apolipoprotein A1 and a 3:2 (mol:mol) mixture of the lipids POPC:POPG (1-palmitoyl-2-oleoyl-sn-glycero-3-phosphocholine: 1-palmitoyl-2-oleoyl-sn-glycero-3-phosphocholine and 1-hexadecanoyl-2-(9Z-octadecenoyl)-sn-glycero-3-phospho-(r-rac-glycerol), respectively, Avanti Polar Lipids). Binding reactions contained 50 fmol functional receptor, 0.6 nM 3H N-methyl scopolamine (NMS), 100 mM NaCl, 20 mM HEPES pH 7.5, 0.1% BSA, and ligands and nanobodies as indicated. Single point allosteric effects of nanobodies were measured in the presence of 10 nM iperoxo. Concentration-dependent effects of nanobodies were measured in the presence of 10 nM iperoxo. All reactions were 500 μL in volume. Reactions were mixed and then incubated for two hours. Samples were then filtered on a 48-well harvester (Brandel) onto a filter which had been pretreated with 0.1% polyethylenimine. All measurements were taken by liquid scintillation counting, and experiments were performed at least in triplicate.
To determine whether the Nanobody variants that specifically stain agonist-bound M2 receptor are able to stabilize the M2 receptor active state, a binding assay was performed. Due to the allosteric properties of GPCRs, molecules that stabilize the active conformation of a receptor also increase agonist affinity. Several conformationally specific binders were isolated and were tested for their ability to induce an increase in the affinity of the non-covalent agonist iperoxo.

Molecule	effect on binding of the radioligand N-methylscopolamine (allosteric binding properties) (single point, with and without agonist (10 nM iperoxo))	enhancement of M2 receptor affinity for the agonist iperoxo	EC50 (concentration-dependent effect of nanobody in the presence of 10 nM iperoxo, 0.6 nM 3H N-methyl scopolamine, read-out: EC50 of nanobody effect on agonist ability to displace a radioactive probe) [nM]	dose-dependent effect on agonist ability to displace a radioactive probe (in the presence of 10 nM iperoxo, 3H N-methyl scopolamine)
B1	decrease in the binding of the radioligand N-methylscopolamine only in the presence of agonist			
B2		confirmed to enhance agonist affinity		
B3		confirmed to enhance agonist affinity; also recorded: enhanced the affinity of the M2 receptor for iperoxo to almost the same extent as that observed in the presence of the heterotrimeric G protein Gi; also recorded: substantial enhancement of iperoxo affinity	~100	dose-dependent effect
B4		confirmed to enhance agonist affinity		

From US20210340249A1, “MUSCARINIC ACETYLCHOLINE RECEPTOR BINDING AGENTS AND USES THEREOF” (VIB VZW, priority 2013, published 2021)
